Experimental data as given in patent publication US20210380703A1 (RIGEL PHARMACEUTICALS, published 2021).

Experiments:
[1] = biological target: T1, biotinylated goat anti-human kappa light chain; assay: ELISA, positive control
T1 construct: positive control of the ELISA
How it was run: (§1)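 mAb binding by ELISA; antigens: hu ACVR2A, mu ACVR2A; pos ctrl biotinylated goat anti-hu kappa LC; neg ctrl hu Fc.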

[2] = biological target: T2, human ACVR2A (human, UniProt P27037 20-135, limits assumed); assay: ELISA
T2 construct: also called activin receptor, type II A
T2 sequence (P27037 20-135 limits assumed): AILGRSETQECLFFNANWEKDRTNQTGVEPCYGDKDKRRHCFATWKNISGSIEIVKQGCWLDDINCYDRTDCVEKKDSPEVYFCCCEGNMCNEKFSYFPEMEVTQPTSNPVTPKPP
How it was run: as §1

[3] = biological target: mouse ACVR2A (mouse, UniProt P27038 20-135, limits assumed); assay: ELISA
mouse ACVR2A, sequence (P27038 20-135 limits assumed): as the sequence (P27037 20-135 limits assumed) above, with K20R, V73I counted along it
How it was run: as §1
Also: test concentration or dose not given here.

Row | optical density [1] | optical density [2] | optical density [3] | Binder
1 | 3.6 OD | 2.15 OD | 2.11 OD | 366_F02 (antibody, V domains shown, Group III) VH: EVQLLESGGGLVQPGGSLRLSCAASGFTFSSYGMNWVRQAPGKGLEWVSGINYNSGYTGYADSVKGRFTISRDNSKNTLYLQMNSLRAEDTAVYYCARGANWHDTHLDYWGQGTLVTVSS VL: DIQMTQSPSSLSASVGDRVTITCRASQSILTYLNWYQQKPGKAPKLVIYAATSRHSGVPSRFSGSGSGTDFTLTISSLQPEDFATYYCQQSYDNPLTFGGGTKVEIK
2 | 3.71 OD | 2.79 OD | 2.77 OD | 366_H01 (antibody, V domains shown, Group II) VH: EVQLLESGGGLVQPGGSLRLSCAASGFTFDDYSMHWVRQAPGKGLEWVANINYNGGYTSYADSVKGRFTISRDNSKNTLYLQMNSLRAEDTAVYYCARAATWHDTHLDYWGQGTLVTVSS VL: DIQMTQSPSSLSASVGDRVTITCRASQSILTYLNWYQQKPGKAPKLVIYATTSRHSGVPSRFSGSGSGTDFTLTISSLQPEDFATYYCQQSYESPLTFGGGTKVEIK
3 | 3.37 OD | 2.42 OD | 2.43 OD | 367_B09 (antibody, V domains shown, Group I) VH: EVQLLESGGGLVQPGGSLRLSCAASGFTFDSYGMHWVRQAPGKGLEWVASINYNGGYTSYADSVKGRFTISRDNSKNTLYLQMNSLRAEDTAVYYCARAANWHDTALDYWGQGTLVTVSS VL: DIQMTQSPSSLSASVGDRVTITCRASQSILSYVNWYQQKPGKAPKLVIYAATSRASGVPSRFSGSGSGTDFTLTISSLQPEDFATYYCQQSYENPLTFGGGTKVEIK
4 | 3.44 OD | 2.58 OD | 2.45 OD | 367_A03 (antibody, V domains shown, Group III) VH: EVQLLESGGGLVQPGGSLRLSCAASGFTFDSYGMNWVRQAPGKGLEWVAGINYNGGYTSYADSVKGRFTISRDNSKNTLYLQMNSLRAEDTAVYYCARGANWHDTALDYWGQGTLVTVSS VL: DIQMTQSPSSLSASVGDRVTITCRASQSILTYVNWYQQKPGKAPKLLIYATTSRHSGVPSRFSGSGSGTDFTLTISSLQPEDFATYYCQQSYDSPLTFGGGTKVEIK
5 | 3.59 OD | 2.71 OD | 2.83 OD | 366_G12 (antibody, V domains shown, Group III) VH: EVQLLESGGGLVQPGGSLRLSCAASGFTFSSYGMHWVRQAPGKGLEWVSGINYNSGYKGYADSVKGRFTISRDNSKNTLYLQMNSLRAEDTAVYYCARGANWHDTHLDYWGQGTLVTVSS VL: DIQMTQSPSSLSASVGDRVTITCRASQSILSYLNWYQQKPGKAPKLLIYAATSRHSGVPSRFSGSGSGTDFTLTISSLQPEDFATYYCQQSYNTPLTFGGGTKVEIK
6 | 3.48 OD | 2.77 OD | 2.98 OD | 367_E10 (antibody, V domains shown, Group II) VH: EVQLLESGGGLVQPGGSLRLSCAASGFTFSSYGMHWVRQAPGKGLEWVSSINYNGGYTGYADSVKGRFTISRDNSKNTLYLQMNSLRAEDTAVYYCARAATWHDTHLDYWGQGTLVTVSS VL: DIQMTQSPSSLSASVGDRVTITCRASQSILSYVNWYQQKPGKAPKLLIYAATSRASGVPSRFSGSGSGTDFTLTISSLQPEDFATYYCQQSYELPLTFGGGTKVEIK
7 | 3.43 OD | 2.04 OD | 2.37 OD | 367_E08 (antibody, V domains shown, Group II) VH: EVQLLESGGGLVQPGGSLRLSCAASGFTFSDYGMNWVRQAPGKGLEWVASINYNGGYTSYADSVKGRFTISRDNSKNTLYLQMNSLRAEDTAVYYCARAATWHDTHLDYWGQGTLVTVSS VL: DIQMTQSPSSLSASVGDRVTITCRASQSILSYLNWYQQKPGKAPKLLIYATTSRASGVPSRFSGSGSGTDFTLTISSLQPEDFATYYCQQSYDNPLTFGGGTKVEIK
8 | 3.34 OD | 2.06 OD | 2.09 OD | 367_A08 (antibody, V domains shown, Group III) VH: EVQLLESGGGLVQPGGSLRLSCAASGFTFDSYGMNWVRQAPGKGLEWVAGINYNGGYTSYADSVKGRFTISRDNSKNTLYLQMNSLRAEDTAVYYCARGANWHDTHLDYWGQGTLVTVSS VL: DIQMTQSPSSLSASVGDRVTITCRASQSILTYLNWYQQKPGKAPKLLIYAVTSRASGVPSRFSGSGSGTDFTLTISSLQPEDFATYYCQQSYDSPLTFGGGTKVEIK
9 | 3.36 OD | 2.34 OD | 2.57 OD | 367_A06 (antibody, V domains shown, Group III) VH: EVQLLESGGGLVQPGGSLRLSCAASGFTFDSYGMNWVRQAPGKGLEWVASINYNGGYKGYADSVKGRFTISRDNSKNTLYLQMNSLRAEDTAVYYCARGANWHDTHLDYWGQGTLVTVSS VL: DIQMTQSPSSLSASVGDRVTITCRASQSILSYVNWYQQKPGKAPKLLIYAATSRHSGVPSRFSGSGSGTDFTLTISSLQPEDFATYYCQQSYDTPLTFGGGTKVEIK
10 | 3.41 OD | 2.68 OD | 2.82 OD | 366_G06 (antibody, V domains shown, Group I) VH: EVQLLESGGGLVQPGGSLRLSCAASGFTFSSYGMHWVRQAPGKGLEWVASINYNGGYTGYADSVKGRFTISRDNSKNTLYLQMNSLRAEDTAVYYCARAANWHDTHLDYWGQGTLVTVSS VL: DIQMTQSPSSLSASVGDRVTITCRASQSIVSYVNWYQQKPGKAPKLVIYAATSRASGVPSRFSGSGSGTDFTLTISSLQPEDFATYYCQQSYDNPLTFGGGTKVEIK
11 | 3.5 OD | 2.12 OD | 2.51 OD | 367_C06 (antibody, V domains shown, Group II) VH: EVQLLESGGGLVQPGGSLRLSCAASGFTFDSYSMHWVRQAPGKGLEWVASINYNGGYKSYADSVKGRFTISRDNSKNTLYLQMNSLRAEDTAVYYCARAATWHDTHLDYWGQGTLVTVSS VL: DIQMTQSPSSLSASVGDRVTITCRASQSILTYLNWYQQKPGKAPKLVIYAATSLHSGVPSRFSGSGSGTDFTLTISSLQPEDFATYYCQQSYDTPLTFGGGTKVEIK
12 | 3.52 OD | 2.69 OD | 2.83 OD | 366_H04 (antibody, V domains shown, Group III) VH: EVQLLESGGGLVQPGGSLRLSCAASGFTFDSYGMNWVRQAPGKGLEWVSNINYNGGYKSYADSVKGRFTISRDNSKNTLYLQMNSLRAEDTAVYYCARGANWHDTHLDYWGQGTLVTVSS VL: DIQMTQSPSSLSASVGDRVTITCRASQSILTYLNWYQQKPGKAPKLLIYAATSRASGVPSRFSGSGSGTDFTLTISSLQPEDFATYYCQQSYSSPLTFGGGTKVEIK
13 | 3.35 OD | 2.01 OD | 2.04 OD | 367_F06 (antibody, V domains shown, Group I) VH: EVQLLESGGGLVQPGGSLRLSCAASGFTFSSYGMNWVRQAPGKGLEWVSSINYNSGYTSYADSVKGRFTISRDNSKNTLYLQMNSLRAEDTAVYYCARAANWHDTALDYWGQGTLVTVSS VL: DIQMTQSPSSLSASVGDRVTITCRASQSISSYVNWYQQKPGKAPKLLIYAVTSRASGVPSRFSGSGSGTDFTLTISSLQPEDFATYYCQQSYDSPLTFGGGTKVEIK
14 | 3.44 OD | 2.41 OD | 2.77 OD | 367_C09 (antibody, V domains shown, Group I) VH: EVQLLESGGGLVQPGGSLRLSCAASGFTFDSYGMHWVRQAPGKGLEWVASINYNGGYTSYADSVKGRFTISRDNSKNTLYLQMNSLRAEDTAVYYCARAANWHDTHLDYWGQGTLVTVSS VL: DIQMTQSPSSLSASVGDRVTITCRASQSILSYVNWYQQKPGKAPKLVIYAATSRHSGVPSRFSGSGSGTDFTLTISSLQPEDFATYYCQQSYNTPLTFGGGTKVEIK
15 | 3.39 OD | 2.4 OD | 2.54 OD | 367_D11 (antibody, V domains shown, Group I) VH: EVQLLESGGGLVQPGGSLRLSCAASGFTFDSYGMHWVRQAPGKGLEWVSNINYNGGYKSYADSVKGRFTISRDNSKNTLYLQMNSLRAEDTAVYYCARAANWHDTALDYWGQGTLVTVSS VL: DIQMTQSPSSLSASVGDRVTITCRASQSIISYLNWYQQKPGKAPKLLIYAATSRASGVPSRFSGSGSGTDFTLTISSLQPEDFATYYCQQSYDSPLTFGGGTKVEIK
16 | 3.56 OD | 2.16 OD | 2.32 OD | 366_G02 (antibody, V domains shown, Group II) VH: EVQLLESGGGLVQPGGSLRLSCAASGFTFDSYGMHWVRQAPGKGLEWVSSINYNGGYTSYADSVKGRFTISRDNSKNTLYLQMNSLRAEDTAVYYCARAATWHDTHLDYWGQGTLVTVSS VL: DIQMTQSPSSLSASVGDRVTITCRASQSILTYLNWYQQKPGKAPKLLIYAATSRHSGVPSRFSGSGSGTDFTLTISSLQPEDFATYYCQQSDDNPLTFGGGTKVEIK
17 | 3.52 OD | 2.05 OD | 2.21 OD | 366_F10 (antibody, V domains shown, Group I) VH: EVQLLESGGGLVQPGGSLRLSCAASGFTFDSYSMNWVRQAPGKGLEWVAGINYNGGYTGYADSVKGRFTISRDNSKNTLYLQMNSLRAEDTAVYYCARAANWHDTHLDYWGQGTLVTVSS VL: DIQMTQSPSSLSASVGDRVTITCRASQSIVSYLNWYQQKPGKAPKLVIYAATSRASGVPSRFSGSGSGTDFTLTISSLQPEDFATYYCQQSYDTPLTFGGGTKVEIK
18 | 3.58 OD | 2.06 OD | 2.1 OD | 367_C12 (antibody, V domains shown, Group II) VH: EVQLLESGGGLVQPGGSLRLSCAASGFTFSSYGMHWVRQAPGKGLEWVSGINYNGGYTSYADSVKGRFTISRDNSKNTLYLQMNSLRAEDTAVYYCARAATWHDTHLDYWGQGTLVTVSS VL: DIQMTQSPSSLSASVGDRVTITCRASQSILSYVNWYQQKPGKAPKLLIYATTSRHSGVPSRFSGSGSGTDFTLTISSLQPEDFATYYCQQSYESPLTFGGGTKVEIK
19 | 3.6 OD | 2.34 OD | 2.46 OD | 367_B11 (antibody, V domains shown, Group I) VH: EVQLLESGGGLVQPGGSLRLSCAASGFTFSDYSMHWVRQAPGKGLEWVANINYNSGYTSYADSVKGRFTISRDNSKNTLYLQMNSLRAEDTAVYYCARAANWHDTALDYWGQGTLVTVSS VL: DIQMTQSPSSLSASVGDRVTITCRASQSILSYLNWYQQKPGKAPKLVIYAATSRASGVPSRFSGSGSGTDFTLTISSLQPEDFATYYCQQSYSTPLTFGGGTKVEIK
